What was measured:
Experiment in all cases: human serum on Con A/WGA/Jacalin column, lectin-specific displacer fraction, LC-MS/MS; grade = SEQUEST rank group (+ = ranks 1-5, ++++ = 16-20)
APOLIPOPROTEIN C-III = target: T1, APOLIPOPROTEIN C-III (human, UniProt P02656 21-99)
T1 construct: from human serum; also called APC3

[1] = target: T2, HAPTOGLOBIN-RELATED PROTEIN (human, UniProt P00739 1-348, limits assumed)
T2 construct: from human serum; also called HPTR
T2 sequence (looked up): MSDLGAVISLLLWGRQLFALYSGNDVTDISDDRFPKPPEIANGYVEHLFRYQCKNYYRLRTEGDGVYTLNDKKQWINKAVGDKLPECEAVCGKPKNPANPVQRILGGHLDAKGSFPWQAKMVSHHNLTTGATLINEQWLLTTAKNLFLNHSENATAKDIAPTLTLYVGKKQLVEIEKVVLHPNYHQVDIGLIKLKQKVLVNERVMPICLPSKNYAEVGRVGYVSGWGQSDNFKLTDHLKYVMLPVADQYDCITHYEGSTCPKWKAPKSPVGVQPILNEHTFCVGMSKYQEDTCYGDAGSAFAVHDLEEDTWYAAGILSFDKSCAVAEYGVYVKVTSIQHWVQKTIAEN

APOLIPOPROTEIN E = target: T3, APOLIPOPROTEIN E (human, UniProt P02649 19-317)
T3 construct: from human serum; also called APE

[2] = target: T4, INTER-ALPHA-TRYPSIN INHIBITOR HEAVY CHAIN H1 (human, UniProt P19827 35-672)
T4 construct: from human serum; also called ITH1
T4 sequence (looked up): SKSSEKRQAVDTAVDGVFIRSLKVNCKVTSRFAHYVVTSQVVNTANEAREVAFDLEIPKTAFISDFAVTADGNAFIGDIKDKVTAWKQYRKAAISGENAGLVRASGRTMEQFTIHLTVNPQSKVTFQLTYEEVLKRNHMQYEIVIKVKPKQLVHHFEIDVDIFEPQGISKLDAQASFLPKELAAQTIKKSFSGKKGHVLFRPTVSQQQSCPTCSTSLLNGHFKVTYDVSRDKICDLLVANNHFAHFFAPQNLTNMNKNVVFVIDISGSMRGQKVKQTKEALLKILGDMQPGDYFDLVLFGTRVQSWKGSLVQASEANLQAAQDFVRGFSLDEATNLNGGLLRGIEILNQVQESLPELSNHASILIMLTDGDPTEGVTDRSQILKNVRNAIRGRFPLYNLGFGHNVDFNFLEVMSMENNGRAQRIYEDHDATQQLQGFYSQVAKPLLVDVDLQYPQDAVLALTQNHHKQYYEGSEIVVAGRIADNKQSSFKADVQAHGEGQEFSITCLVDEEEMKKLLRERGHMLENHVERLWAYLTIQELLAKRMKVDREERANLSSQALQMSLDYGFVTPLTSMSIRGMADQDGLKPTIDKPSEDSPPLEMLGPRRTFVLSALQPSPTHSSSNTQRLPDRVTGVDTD

[3] = target: T5, INTER-ALPHA-TRYPSIN INHIBITOR HEAVY CHAIN H2 (human, UniProt P19823 55-702)
T5 construct: from human serum; also called ITH2
T5 sequence (looked up): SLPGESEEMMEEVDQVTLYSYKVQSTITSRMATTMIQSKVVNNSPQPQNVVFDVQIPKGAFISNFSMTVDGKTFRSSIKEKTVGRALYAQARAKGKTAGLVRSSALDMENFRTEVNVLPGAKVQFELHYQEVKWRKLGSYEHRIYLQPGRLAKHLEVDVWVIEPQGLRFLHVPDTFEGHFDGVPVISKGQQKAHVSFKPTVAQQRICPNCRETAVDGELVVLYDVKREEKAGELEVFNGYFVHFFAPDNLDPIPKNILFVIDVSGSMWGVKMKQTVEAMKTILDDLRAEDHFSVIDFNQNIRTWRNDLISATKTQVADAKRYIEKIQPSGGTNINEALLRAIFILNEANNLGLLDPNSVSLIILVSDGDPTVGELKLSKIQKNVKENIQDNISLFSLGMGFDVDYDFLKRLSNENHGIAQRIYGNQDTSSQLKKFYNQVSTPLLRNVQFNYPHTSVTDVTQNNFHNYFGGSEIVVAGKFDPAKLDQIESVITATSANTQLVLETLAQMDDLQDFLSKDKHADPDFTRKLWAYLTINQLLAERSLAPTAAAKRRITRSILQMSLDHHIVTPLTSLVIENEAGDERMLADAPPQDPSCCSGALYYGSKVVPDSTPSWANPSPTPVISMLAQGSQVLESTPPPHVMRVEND

Alpha-1-antitrypsin = target: T6, Alpha-1-antitrypsin (human, UniProt P01009 25-418)
T6 construct: also called A1AT; α1-antitrypsin

[4] = target: T7, IG GAMMA-3 CHAIN C REGION (human, UniProt P01860-1 1-377)
T7 construct: domain: C region; Polyclonal serum IgG3, identified through its constant region; variable regions and light chains not defined; also called GC3
T7 sequence (P01860 other isoform, or with tags, fused parts or gaps limits assumed): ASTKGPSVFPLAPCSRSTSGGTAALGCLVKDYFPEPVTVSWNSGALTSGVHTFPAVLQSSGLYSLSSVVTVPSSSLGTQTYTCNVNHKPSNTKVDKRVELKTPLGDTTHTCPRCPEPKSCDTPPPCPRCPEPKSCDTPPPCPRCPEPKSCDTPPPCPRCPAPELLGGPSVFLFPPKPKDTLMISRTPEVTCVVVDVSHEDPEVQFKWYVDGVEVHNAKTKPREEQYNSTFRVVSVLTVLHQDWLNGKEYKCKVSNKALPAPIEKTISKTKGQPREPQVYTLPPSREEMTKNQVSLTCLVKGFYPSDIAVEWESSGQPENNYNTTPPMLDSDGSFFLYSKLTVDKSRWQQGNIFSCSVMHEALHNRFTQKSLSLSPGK

T3 sequence (P02649 19-317 limits assumed): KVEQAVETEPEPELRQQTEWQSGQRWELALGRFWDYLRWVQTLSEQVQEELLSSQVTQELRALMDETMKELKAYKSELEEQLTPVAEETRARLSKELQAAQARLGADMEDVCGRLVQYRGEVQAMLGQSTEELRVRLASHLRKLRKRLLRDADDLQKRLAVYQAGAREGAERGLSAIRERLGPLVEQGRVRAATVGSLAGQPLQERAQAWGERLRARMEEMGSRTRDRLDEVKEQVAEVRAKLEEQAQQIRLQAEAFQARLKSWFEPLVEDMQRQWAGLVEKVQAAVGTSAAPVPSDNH
T1 sequence (P02656 21-99 limits assumed): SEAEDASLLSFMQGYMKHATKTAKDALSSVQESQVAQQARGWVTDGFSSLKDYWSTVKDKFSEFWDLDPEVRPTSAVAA
T6 sequence (P01009 25-418 limits assumed): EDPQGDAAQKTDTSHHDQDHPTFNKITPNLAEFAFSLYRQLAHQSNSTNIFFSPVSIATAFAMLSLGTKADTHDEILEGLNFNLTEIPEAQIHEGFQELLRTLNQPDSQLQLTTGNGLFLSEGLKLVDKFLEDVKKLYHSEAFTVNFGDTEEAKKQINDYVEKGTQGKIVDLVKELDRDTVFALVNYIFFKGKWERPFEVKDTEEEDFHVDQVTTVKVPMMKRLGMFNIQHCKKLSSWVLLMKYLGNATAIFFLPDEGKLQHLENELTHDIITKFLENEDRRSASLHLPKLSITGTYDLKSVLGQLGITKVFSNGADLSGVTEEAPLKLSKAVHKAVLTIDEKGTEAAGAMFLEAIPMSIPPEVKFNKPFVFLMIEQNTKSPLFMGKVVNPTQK

B1: Jacalin lectin, agarose-bound (other)
chain 1: GKAFDDGAFTGIREINLSYNKETAIGDFQVVYDLNGSPYVGQNHKSFITGFTPVKISLDFPSEYIMEVSGYTGNVSGYVVVRSLTFKTNKKTYGPYGVTSGTPFNLPIENGLIVGFKGSIGYWLDYFSMYLSL
chain 2: NEQSGKSQTVIVGSWGAKVS
modifications: immobilized on agarose
notes: Lectin; released with galactose; Coated on the plate in the lectin ELISA
SEQUEST ranking (relative abundance in the Jacalin displacement fraction) (APOLIPOPROTEIN C-III): 6 to 10 rank
SEQUEST ranking (relative abundance in the Jacalin displacement fraction) [1]: 6 to 10 rank
SEQUEST ranking (relative abundance in the Jacalin displacement fraction) (APOLIPOPROTEIN E): 11 to 15 rank
SEQUEST ranking (relative abundance in the Jacalin displacement fraction) [2]: 6 to 10 rank
SEQUEST ranking (relative abundance in the Jacalin displacement fraction) [3]: 16 to 20 rank
SEQUEST ranking (relative abundance in the Jacalin displacement fraction) (Alpha-1-antitrypsin): 1 to 5 rank
SEQUEST ranking (relative abundance in the Jacalin displacement fraction) [4]: 16 to 20 rank

From US20090166224A1 (published 2009)
